Experimental data reported in patent publication US20130123192A1 (RESEARCH FOUNDATION OF STATE UNIVERSITY OF NEW YORK, published 2013).
Where no end group is shown, it is not given here.

Columns and labels:
[1] = target: T1, Membrane type 1 matrix metalloproteinase (MT1-MMP) (Homo sapiens, UniProt P50281 112-582); assay: cell-based or functional assay
[2] = target: T1, Membrane type 1 matrix …; assay: flow cytometry on cells expressing MT1-MMP

Binder	IC50, 3D invasion assay (human MDA-MB-231 breast cancer cell invasion) [1] [nM]	binding result [2]
GYPMP [IS4-5 peptide (GYPMP)]	1500	–
GYPKSALR [IVS4-8 peptide (GYPKSALR)]	10000	–
VMDGYPMP [IS4-8 peptide (VMDGYPMP)]	1500	–
GYPMP (also: biotinylated (site not given here), also called biotinylated IS4-5 peptides) [biotinylated IS4-5 peptide]	–	binds
